Measured values from publication PMC11686378.
Values belong to the substance of their own block, whether it stands above or below them.

Key:
[1] = biological target: DNA primase PriSL (PriS-PriL heterodimer) from P. abyssi, in solution (Pyrococcus abyssi) (UniProt Q9V292)
[2] = biological target: DNA primase PriSL (PriS-PriL heterodimer) from P. abyssi, in solution (Pyrococcus abyssi) (UniProt Q9V292); remark: listed apart in the source
[3] = biological target: Replication Protein A (RPA) heterotrimer from Pyrococcus abyssi, wild type (Pyrococcus abyssi); assay: BLI; RPA or RPA^ΔWH nucleoprotein filaments on a 3'-TEG-biotin 50-nt ssDNA held on streptavidin sensors; PriSL (1.56-100 nM) or PolD (15.62-1000 nM) in solution; steady-state analysis; 25 °C, buffer E with 0.2 mg/ml BSA

Sequence of DNA primase PriSL (PriS-PriL heterodimer) from P. abyssi, in solution (Pyrococcus abyssi) (Q9V292 whole entry, chain 1 of 2): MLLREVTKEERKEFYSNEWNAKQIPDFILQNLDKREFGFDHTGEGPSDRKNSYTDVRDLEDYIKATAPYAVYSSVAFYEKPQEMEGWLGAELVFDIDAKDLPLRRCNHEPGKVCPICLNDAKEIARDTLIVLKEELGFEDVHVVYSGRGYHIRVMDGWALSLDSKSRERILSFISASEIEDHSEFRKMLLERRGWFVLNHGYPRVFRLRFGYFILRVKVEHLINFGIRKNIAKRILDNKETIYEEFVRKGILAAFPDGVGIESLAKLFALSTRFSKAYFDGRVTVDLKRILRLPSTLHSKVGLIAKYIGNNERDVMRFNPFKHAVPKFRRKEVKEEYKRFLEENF
Sequence of DNA primase PriSL (PriS-PriL heterodimer) from P. abyssi, in solution (Pyrococcus abyssi) (Q9V291 whole entry, chain 2 of 2, further chain): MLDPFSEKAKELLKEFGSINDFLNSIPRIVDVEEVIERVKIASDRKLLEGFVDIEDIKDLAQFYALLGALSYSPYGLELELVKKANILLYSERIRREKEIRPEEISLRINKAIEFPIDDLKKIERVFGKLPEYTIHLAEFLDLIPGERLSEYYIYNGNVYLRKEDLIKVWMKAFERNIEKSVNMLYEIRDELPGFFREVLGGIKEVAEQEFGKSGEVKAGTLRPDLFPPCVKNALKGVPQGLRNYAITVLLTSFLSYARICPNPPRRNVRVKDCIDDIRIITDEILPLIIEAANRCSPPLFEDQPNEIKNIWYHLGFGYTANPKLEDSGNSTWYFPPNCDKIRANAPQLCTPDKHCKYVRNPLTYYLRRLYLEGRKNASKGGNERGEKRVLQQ

- PriSL primer extension, reduction in long extension products against wild-type RPA, over the RPA concentrations tested [1]: 45%
Substance: RPA^ala-linker, RPA with all 12 glutamic acid residues of the Rpa2 linker substituted with alanine (complex)

- PriSL primer extension, long products (≥70 nt), with RPA from 0.05 to 0.8 µM [2]: 5 fold
Substance: Replication Protein A (RPA) heterotrimer from Pyrococcus abyssi, wild type (complex)

- Kd [3]: 136 nM
Substance: Replicative DNA polymerase PolD (DP1-DP2 heterodimer) from P. abyssi, in solution (complex)
